Sequences and labels used below:
B1: humanized 7B3 (h7B3), Fc version not stated (antibody, V domains shown)
VH: EVQLVESGGGLVQPGGSLRLSCAASGFTFSTYGFHWVRQAPGKGLEWVAYISSNSGTIDYADTVKGRFTISRDNAKNSLYLQMNSLRAEDTAVYYCARQGYGFDNWGQGTTVTVSS
VL: DIQLTQSPSSLSASVGDRVTITCSASSRVSYMNWYQQKPGKSPKIWVYGISNLASGVPSRFSGSGSGTDFTFTISSLQPEDIATYYCQQRSSHPLTFGGGTKVEIK
B2: humanized 8E11 (h8E11), Fc version not stated (antibody, V domains shown)
VH: EVQLVESGGGLVQPGGSLRLSCAASGFTFRTYGMHWVRQAPGKGLEWVAYISSGSGTIDYADTVKGRFTISRDNAKNSLYLQMNSLRAEDTAVYYCTRQTGAMDYWGQGTLVTVSS
VL: EIVLTQSPATLSLSPGERATLSCSASSSVSYMNWYQQKPGQSPRLWIYGISNLASGVPARFSGSGSGTDFTLTISSLEPEDFAVYYCQQRSSHPLTFGGGTKVEIK
B3: humanized 6E1 (h6E1), Fc version not stated (antibody, V domains shown)
VH: EVQLVQSGAEVKKPGASVKVSCKASGYTFTNYWMHWMRQAPGQGLEWLGRIHPSDSDTNYNQKFKGRATLTVDKSISTAYMELSRLRSDDTAVYYCAIEGTGKGYFDVWGRGTLVTVSS
VL: DIQMTQSPSSLSASVGDRVTITCKASQDIYSYLSWFQQKPGKSPKTLIYRANRLVDGVPSRFSGSGSGQDFTLTISSLQPEDFATYYCLHYDEFPLTFGGGTKVEIK

The target in this test is mutagenized ULBP6 phage library (pool of ULBP6 mutants displayed on M13 phage). The experiment in a line: plate panning; antibody coated at 5 ug/mL, eluted phage titered against PBS-coated background wells.
In turn, B1 returned a Phage enrichment of 75 fold. As for B2, the Phage enrichment came out at 145 fold. Turning to B3, the Phage enrichment is 220 fold.
